According to patent US20170298330A1:

Molecular target: nMagHigh1-C714 (fused polypeptide of nMagHigh1 and a C-terminal side fragment of Cas9)
Assay: cell-based or functional assay

Question: What does the source list for “N713-pMag (fused polypeptide of an N-terminal side fragment of Cas9 and pMag)”?
Answer: frequency of HDR (integration of a HindIII site) at human EMX1 locus, RFLP analysis, blue light: 7.2%; indel frequency at EMX1 locus after 0, 1, 3 and 6 hours of blue light, T7E1 assay: < 1%; light-dependent Cas9 activity, luciferase plasmid HDR assay in HEK293T cells: 16.4 times
